Measurements reported in EP2078752A2 (LUDWIG INSTITUTE FOR CANCER RESEARCH, dated 2009).

Key:
Assay in all cases: affinity cross-linking of 125I-activin A then immunoprecipitation, COS-1 cells co-transfected with ActR-II
[1] = target: T1, mouse ALK-6 (clone ME-6) (mouse, UniProt P36898 14-502)
T1 construct: Expressed from cDNA in COS-1 cells; also called mALK-6; BMPR-IB

[2] = target: T2, human ALK-1 (clone HP57) (human, UniProt P37023 22-503)
T2 construct: Expressed from cDNA in COS-1 cells, or endogenous in HUVEC; also called hALK-1
T2 sequence (P37023 22-503 S172T limits assumed): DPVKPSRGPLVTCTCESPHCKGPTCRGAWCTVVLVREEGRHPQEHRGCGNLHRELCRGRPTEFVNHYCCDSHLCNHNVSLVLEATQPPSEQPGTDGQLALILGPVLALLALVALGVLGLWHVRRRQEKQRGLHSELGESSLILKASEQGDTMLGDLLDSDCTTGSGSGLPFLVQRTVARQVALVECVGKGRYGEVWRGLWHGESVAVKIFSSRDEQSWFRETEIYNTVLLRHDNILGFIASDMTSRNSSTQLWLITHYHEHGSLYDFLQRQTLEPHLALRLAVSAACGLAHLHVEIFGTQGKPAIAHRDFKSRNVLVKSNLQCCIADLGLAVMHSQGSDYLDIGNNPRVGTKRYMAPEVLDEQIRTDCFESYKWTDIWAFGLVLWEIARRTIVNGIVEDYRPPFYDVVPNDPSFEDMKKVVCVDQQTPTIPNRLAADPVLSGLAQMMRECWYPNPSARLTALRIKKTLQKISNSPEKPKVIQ

[3] = target: T3, human ALK-5 (clone EMBLA), TGF-β type I receptor (human, UniProt P36897 25-503)
T3 construct: Expressed from cDNA in COS-1 cells and PAE cells (PAE/TβR-I), or endogenous in human cell lines and HUVEC; also called hALK-5; TβR-I
T3 sequence: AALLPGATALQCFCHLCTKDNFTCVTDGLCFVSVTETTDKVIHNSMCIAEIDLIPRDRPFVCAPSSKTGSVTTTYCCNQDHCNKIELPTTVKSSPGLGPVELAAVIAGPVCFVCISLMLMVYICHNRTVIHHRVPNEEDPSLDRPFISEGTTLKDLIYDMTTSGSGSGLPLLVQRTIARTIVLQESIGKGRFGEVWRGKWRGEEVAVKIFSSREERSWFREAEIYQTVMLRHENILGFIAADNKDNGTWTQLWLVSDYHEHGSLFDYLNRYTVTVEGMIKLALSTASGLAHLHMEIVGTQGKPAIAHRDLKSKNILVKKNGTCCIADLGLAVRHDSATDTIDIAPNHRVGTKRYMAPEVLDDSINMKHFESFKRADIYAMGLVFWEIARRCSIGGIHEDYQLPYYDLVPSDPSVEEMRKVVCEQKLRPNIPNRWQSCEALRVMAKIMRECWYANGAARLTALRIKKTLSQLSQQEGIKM

Measured: binding result

T1 sequence (P36898 14-502 limits assumed): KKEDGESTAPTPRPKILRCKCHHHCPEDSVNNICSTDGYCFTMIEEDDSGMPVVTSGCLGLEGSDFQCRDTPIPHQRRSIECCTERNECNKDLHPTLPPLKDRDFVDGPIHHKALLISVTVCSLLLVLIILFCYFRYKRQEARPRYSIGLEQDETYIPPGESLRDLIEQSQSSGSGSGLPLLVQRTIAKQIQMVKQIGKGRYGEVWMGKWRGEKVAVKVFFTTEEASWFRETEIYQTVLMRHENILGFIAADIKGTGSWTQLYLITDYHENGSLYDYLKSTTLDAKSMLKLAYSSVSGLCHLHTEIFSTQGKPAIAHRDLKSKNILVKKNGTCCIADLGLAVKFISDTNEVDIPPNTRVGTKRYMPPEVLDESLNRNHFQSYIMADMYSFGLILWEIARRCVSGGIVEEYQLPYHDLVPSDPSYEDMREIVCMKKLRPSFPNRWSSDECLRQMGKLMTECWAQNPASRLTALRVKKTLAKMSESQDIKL

B1: recombinant human activin A, iodinated (^125I-activin A) (ligand, UniProt P08476 311-426, looked up)
chain: GLECDGKVNICCKKQFFVSFKDIGWNDWIIAPSGYHANYCEGECPSHIAGTSGSSLSFHSTVINHYRMRGHSPFANLKSCCVPTKLRPMSMLYYDDGQNIIKKDIQNMIVEECGCS
modifications: 125I-iodinated by the chloramine T method
notes: Recombinant ligand
binds: all assays above
